Experimental data taken from the DeepSol protein solubility set.

Test: soluble on expression in E. coli; label from the status in PepcDB or PDB records

## HYRRHSVESKLARAALDGMTAVMISDASLRIIMVNQEFENMMGYSTEQVKGSNAHSLILLPEDLEETLNIWNKLGRENVWEGEVRCRTQLNHVFTAIMRIQANLTKSGKISYYITSLVDISE
  soluble on expression in E. coli: not soluble

## MQAWIQQGLHGMQMGGRVGNYDQTFVVYGPVFLPNATQSKISEINYGGKILLPSSALNLLMQYNIPMPMLFKLTNMAVQRVTHCGVLEFSAPEGQAILPLWMMQQLGLDDGDTIRIESATLPKATFAKLKPMSLEFLNITNPKAVLEVELRKYACLTKNDRIPTSYAGQTLEFLVVDLKPANSVCIIECDVNLDFDPPEGYVEQPRQVTPAVTAKPPAPDASAFIGAGQKAGGSGGTGQNATSVFGGAGRRLDGKKKPSSSVSLSDGTGVSTSNAAPVANDLPAIPPVVVNEDYKPGRVSFLRYDYKRVDVLEKELREKEASKAGQPSNVFRGGNRTLRGAR
  soluble on expression in E. coli: not soluble

## MVRVDQNLFNEVMYLLDELSQDITVPKNVRKVAQDSKAKLSQENESLDLRCATVLSMLDEMANDPNVPAHGRTDLYTIISKLEALS
  soluble on expression in E. coli: soluble

## MAHHHHHHMGDNGGMVLFKAIAGAIEDGEDKLEYLNLEVNELGEKTAKAMQRVLSSSTALKTLRLSYNSFGGASKYIMEGLAENKYLRSLFLSFCEIREADGAAIGTALTANSTLQHLDLSNNKLKDAGSKCIAEAMKTNEGLISLNLSCNKIADDGGKAIALFLTSNRTLRELNLRRNCMSNATGELLDDQLRGNMTLEKMNVGFNDFRYKSLIGHRTTLARNAEKNKSLIVPKLRAEIEGLSFKERDLSQAEDEIEMERRIIKDRSEQLLRRNEEARVASEKARREIADLEKNLAAVRVRFESAEEVLLRTEERVSNEMAEISGRKANMEARVQQEREKVDRLQREMDRVRRQLKQLEEAEASRLKPLFLEFGIAEADRDREAKECQYEADKLAALELQRKELEKKLGLSLPVAGGVSAPTAKKRK
  soluble on expression in E. coli: not soluble

## MASSINNRKPSEIFKAQALLYKNMYAFVDSMSLKWSIEMNIPNIIHNHGKPITLSNLVSILQIPSTKVDNVQRLMRYLAHNGFFEIITNQELENEEEAYALTVASELLVKGTELCLAPMVECVLDPTLSTSFHNLKKWVYEEDLTLFAVNLGCDLWEFLNKNPEYNTLYNDALASDSKMINLAMKDCNLVFEGLESIVDVGGGNGTTGKIICETFPKLTCVVFDRPKVVENLCGSNNLTYVGGDMFISVPKADAVLLKAVLHDWTDKDCIKILKKCKEAVTSDGKRGKVIVIDMVINEKKDENQLTQIKLLMNVTISCVNGKERNEEEWKKLFIEAGFQDYKISPFTGLMSLIEIYP
  soluble on expression in E. coli: soluble

## MGLALQHSHRWDLSPREAANLQTRLRPLVLAEDALPDEIRTVAGVDVGFEDHGRITRAAVAVLDFPSLRPSDQAIVRRPTRFPYVPGLLSFRELPALLEALERLNLLPGLILVDGHGYAHPRRFGIACHLGVLTGIPTIGVGKTRLVGTHGELAEDRGSWIPLIDGDETVGAVVRTRRGVQPVYVSVGHRLSLPTAVDWVLRCTPRYRLPETTRQAHRLASALEHHHHHH
  soluble on expression in E. coli: not soluble

## PDATSKKVVPLGVEIYEINGPFFFGVADRLKGVLDVIEETPKVFILRMRRVPVIDATGMHALWEFQESCEKRGTILLLSGVSDRLYGALNRFGFIEALGEERVFDHIDKALAYAKLLVETAEERGRES
  soluble on expression in E. coli: soluble

## MSLDRVTISHMADALGVTKSTVSRAMNGYPDISEATQLRVKRMAEKMGYQPLSHAQAIKTGRARSLGLVLQFSDHDAQRPFLAEFLAGLSAGAHTDGWTLTVAAADGHDELIETFRAILRDGKADGFILPRAMSTDPRVYLLRDAGVPFVLFGRQDKEEGCAWFDVLGEEAMCDAVLHLATLGHRRIGFINGGLQYAYARLRAAGFADGMQIAGLEMDDSLIADDAMTMESGAVAAARILDTTNPPTALVCAVDFAALGAYRAAADRGIIIGRDLSIIGYDGIPEGAFAHPPLTTFAVDNRAAGFALATLLIQRIKGEPLETLRRLVPATFVERASTGEGHHHHHH
  soluble on expression in E. coli: not soluble

## MSEQITFATSDFASNPEPRCPCILLLDVSGSMSGRPINELNTGLVTFRDELLADSLALKRVELGIVTFGPVHVEQPFTSAANFFPPILFAQGDTPMGAAITKALDMVEERKREYRANGISYYRPWIFLITDGAPIDEWQAAANKVFRGEEDKRFAFFSIGVQGADMKTLAQISVRQPLPLQGLQFRELFSWLSSSLRSVSRSTPGTEVVLEAPKGWTSV
  soluble on expression in E. coli: not soluble

## MGSDKIHHHHHHMIMINKTKRLMVSRQVKIPRKTYFWGPTPNPGMHPKDQSVTLLSIIRDYLKLSDKEREAARILANGLVKVDGKTVREKKFAVGFMDVIEINGESYRVVYNDQGALVLMKETKERASMKLLKVRSKVIAPGNRIQLGTHDGRTFITDDKSKKVGDVWAVSVPDMKISEIIKMQPGNKAYITAGSHVNQTGTISKIEAKEGSSANLVHFQEGFSTIKDHVFMIGSSKFSFVLSPEEVIP
  soluble on expression in E. coli: not soluble

## MENKSPMKGSEAENAKDQLKKKTAEEFAQMAIINRAFSAESTEDPPPLAQKRSESTLKPLNDELKSVPLVRAFNSAENQLDPKNQNAAKK
  soluble on expression in E. coli: not soluble

## MGQCLGTLCTVDSATDNISSVYQLAGPVAVKESPRIAERDPKVKISVNPEEENVERPCVLYSKSNEIIKKPDIFEEIYKRTPITLSNNGRIDVAELPAGQRVIEVENNEVRDKYKKTLYEIRRKCRELQNLGAEDEETGEIIDTLLILYKDFFLLTTWKIDKYAQLRKNAAVQAYNSLPKLRADPAEFRCHVEFQYRVANELWEHFKETYIHKYEACNWAERAKVKEWDLLDSQVQTPNVEWDYLGAHGYI
  soluble on expression in E. coli: not soluble

## MAHHHHHHMRSVWSGCRSIVSPPLWPLRLRHSVQVGAHGGHAFGMCSRSESVVSTFAMRVSLRWHGTTTPPSASPEGSSGAVHSVLSAAGHNDEEEASSSRSFRGTVRTVRLHNMPRTWLHEEVMQFLHQVAEHAGIDPPPEATQDNGTEGNANSKEYEEEDMTSAVPNVTSPFVARMHIPFGRRTGIVCGPPIIQLTSDALAGYLLNDLNFEPDDYRSRIYFTEVVNDKYHEATKMVNKDEAALLKMEQQEALESLELDRYLMAPDLLYDIAKMRQRRLVTRRSKLLLHTFADDDRPDEGEDGKDQSEVKDDDPTNENKRVRLRRHKKSKKTLRCVGEYKELGRGSVHSVPLALPYVQGRRGV
  soluble on expression in E. coli: not soluble

## MSLSSCEVLTSLGERMILIRGLTRVITFDDQERELEDADILIDGPKIVAVGKDLSDRSVSRTIDGRGMIALPGLINSHQHLYEGAMRAIPQLERVTMASWLEGVLTRSAGWWRDGKFGPDVIREVARAVLLESLLGGITTVADQHLFFPGATADSYIDATIEAATDLGIRFHAARSSMTLGKSEGGFCDDLFVEPVDRVVQHCLGLIDQYHEPEPFGMVRIALGPCGVPYDKPELFEAFAQMAADYDVRLHTHFYEPLDAGMSDHLYGMTPWRFLEKHGWASDRVWLAHAVVPPREEIPEFADAGVAIAHLIAPDLRMGWGLAPIREYLDAGITVGFGTTGSASNDGGNLLGDLRLAALAHRPADPNEPEKWLSARELLRMATRGSAECLGRPDLGVLEEGRAADIACWRLDGVDRVGVHDPAIGLIMTGLSDRASLVVVNGQVLVENERPVLADLERIVANTTALIPKNLEGHHHHHH
  soluble on expression in E. coli: not soluble

## MGSDKIHHHHHHMSHDTVSPGLSLREIRAILAVAEQRGFSSAARRLNISQSSLSRTIHRAESVLAIRLFQRGWGGAEPTPEGEIVRQHCTQVMAELLHERDALMAAGLTRLPLPLDLRWRDLACVAAVVHTGKTTTAAKWLRTSQSSVSRTLGAISVRLGSPLFQRSGEGLRAEPLAERLVALRDRMCARMQPLQERLGHLAGEVTGRLAVGMTPFCEQERVAQAFGDLLVAYPQLRLSAVTGSYVMLTDALRCGEIDLVVGLLRELGEDDELAELPLAEEAITVLARSDHPCAVRSVSMEDLARQTWIVAPAGTPIRAYFERLFLGMGKTPPVQTCEIVTFHLAESMVRESQSLALLLYSPRKVRELPPGLVRVPVTLPDNRRHIGVTYRRDAGLSFTQRQFIDGLAKRFASDDDAEGNAP
  soluble on expression in E. coli: not soluble

## MKRVVLYIKDKCPHCKDAQRYLDSKGIKYRLCNAKMERGRKELDALGARSVPVLKIGDRLMIGWNHTNFERIYSSKD
  soluble on expression in E. coli: not soluble

## MGSDKIHHHHHHVYYAHFGLKEPPFKITPNTDFFFRGGNRGAVLEALRYAILHGEGIVKVVGEVGSGKTMLCRMLQTQLPDHVDSVYLANPSMAPEDVLHAIALELHLDIPDRLSKLEVMQRLQQALLDKHEARRQVVVFVEEAQGMPLATLEEIRLLTNLETRHHKLLQIVLFGQPELDDNLNQRQIRQLKERITHSFYLGPLSRDEIAEYLMFRLRAAGYYGPPLFTKRAVKQLAKMAQGLVRRVNILADKSLLAAFAANADQVTPRHVAAAIRDSEFAGEIQRPVGRWSVLIGGLVLGVAGMALYAWSQGMLPLPVAPAPVTHAETEQRLEEAHSLENESGRGMSGVLPLLMQREEASLVWLDSTPPEYITIALMHDFPETDQEKEQQLLSANLVLDDVYALRTKVGEEDRVIILYGAYENRQQALEEFRSLPKALQMGAYLRTIAGIREELLQHQ
  soluble on expression in E. coli: not soluble

## MLMNNNNVYSLNNFDFLARSFARMQAEGRPVDIQAVTGNMDEEHRDWFCKRYALYCQQATQAKRLELEH
  soluble on expression in E. coli: not soluble

## MSLKHHGKIKIKHAVKVLKVSRSGFYEYMHRRPSKQQVEREILSEKIKAVFHEHKGRYGAVRITKVLHNTGIMTNTKRVGKLMHLMGLYAKGSRYKYKHYNRKGASLSRPNLINQIFKATAPNKVWLGDMTYIPTKEGTLYLAVNIDVFSRKIVGWSMSSRMQDKLVRDCFLQACGKEHPQPGLIVHTDQGSQYTSSRYQSTLRQVGAQSSMSRKGNPYDNAMMESFYKTLKRELINDAHFETRAEATQEIFKYIETYYNTKRMHSGLDYKSPKDFEKYNSEGHHHHHH
  soluble on expression in E. coli: not soluble

## MASIKKVYRGMKNGAETINDDLEAINSELTSGGNVVHKTGDETIAGKKTFTGNVEVNGSLTLPVQTLTVEAGNGLQLQLTKKNNDLVIVRFFGSVSNIQKGWNMSGTWVDRPFRPAAVQSLVGHFAGRDTSFHIDINPNGSITWWGANIDKTPIATRGNGSYFIK
  soluble on expression in E. coli: soluble

## RPRGPRAVFILPVTAQGEAVLIRQFRYPLRATITEIVAGGVEKGEDLGAAAARELLEEVGGAASEWVPLPGFYPQPSISGVVFYPLLALGVTLGAAQLEDTETIERVVLPLAEVYRMLEAGEIQDGPSSLTLWQARGELTRRGLL
  soluble on expression in E. coli: soluble

## MGSDKIHHHHHHMVKRKNVAVIGGGVSGLAAAKAFDERGHRVTGFERSHDFGGVWELSRSYPDVQTQSPKDLYCYTDLPMPDAYPEWPKGPQVHAYLHSYANKHNLPRLFQLNTNILSMDRRADGQPGWTLTIEAAGRVRKEDFDFVAICTGQFSDKNILTHPGQEAFVAGGGEVIHSSEYTDSEMARGKHVVVLGGSKSATDIVVNAARSGAKSVTMVYRENVWRVPYFVGGINFKRLLYMRAQEQQFNQWGKSPLQRVIAALLKPLVWANFRGLETLLKAQLGLKKWNMVPDTPIEKEASCSLPIVTPGLFESFRDGTVKPIQGTYDRYEDGHVVLTTGDRVPCDLSVLAVGWKLGIPYLAQEYRDKLIEADGQYRVYRLAVNPDLPDMGFVGFNSSFCTILSAEMIANWLVRFADGQLAHQPSAQEMNANIEMMLNWRRKERPAAQVYGGLCSAPFHFKHFDELLADMGAGVRKRANPLAEQFSYPDARAYGRFLASTPQYQAG
  soluble on expression in E. coli: not soluble

## ASNIHRIQQIVEAAERYNRKVAVSGRSMENIVAVAIELGYLKVKEGVLIGIDAINRYADNKIVIITTGSQGEPMSALTRMAAQEHKKVKIQEGDMVVISANPIPGNEKLVSRVINQLFKKGAEVIYEALADVHVSGHACQEELKLMHTLIKPRFFIPVHGEYRHLKQHKELATNLGMPKANVVIPEIGGVIELTRSSIKKTDTVVAGKVFVDGLGVGDVGNIVLRDRKHLSQDGIVTVVVTIEKVSGTVIAGPDIISRGFVYVRESEDLMEESKEIVKTALLECEEKHITEWATIKSNIKDVLRIFLYERTKRKPMILPIIME
  soluble on expression in E. coli: not soluble
